Experiments:
HeLa Kyoto [1] = assay: solubility in G1/S (NP-40 vs SDS abundance) (log2 ratio); higher = more soluble; settings: cell cycle stage: G1/S
HeLa Kyoto [2] = assay: solubility change mitosis vs G1/S (difference of NP-40 vs SDS log2 ratios) (log2 ratio difference); higher = more soluble in mitosis
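For solubility change mitosis vs G1/S (difference of NP-40 vs SDS log2 ratios) in this document: synchronized HeLa Kyoto cells (double thymidine block for G1/S, nocodazole release for mitosis), protein amounts in NP-40 versus SDS lysates quantified by mass spectrometry, three biological replicates.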
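For solubility in G1/S (NP-40 vs SDS abundance) in this document: HeLa Kyoto cells arrested at G1/S by double thymidine block, proteins quantified by TMT10plex mass spectrometry in mild NP-40 versus SDS extracts, three biological replicates.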

Sequence | solubility in G1/S (log2) (HeLa Kyoto [1]) | solubility change mitosis (log2) (HeLa Kyoto [2])
MFSLKPPKPTFRSYLLPPPQTDDKINSEPKIKKLEPVLLPGEIVVNEVNFVRKCIATDTSQYDLWGKLICSNFKISFITDDPMPLQKFHYRNLLLGEHDVPLTCIEQIVTVNDHKRKQKVLGPNQKLKFNPTELIIYCKDFRIVRFRFDESGPESAKKVCLAIAHYSQPTDLQLLFAFEYVGKKYHNSANKINGIPSGDGGGGGGGGNGAGGGSSQKTPLFETYSDWDREIKRTGASGWRVCSINEGYMISTCLPEYIVVPSSLADQDLKIFSHSFVGRRMPLWCWSHSNGSALVRMALIKDVLQQRKIDQRICNAITKSHPQRSDVYKSDLDKTLPNIQEVQAAFVKLKQLCVNEPFEETEEKWLSSLENTRWLEYVRAFLKHSAELVYMLESKHLSVVLQEEEGRDLSCCVASLVQVMLDPYFRTITGFQSLIQKEWVMAGYQFLDRCNHLKRSEKESPLFLLFLDATWQLLEQYPAAFEFSETYLAVLYDSTRISLFGTFLFNSPHQRVKQSTEFAISKNIQLGDEKGLKFPSVWDWSLQFTAKDRTLFHNPFYIGKSTPCIQNGSVKSFKRTKKSYSSTLRGMPSALKNGIISDQELLPRRNSLILKPKPDPAQQTDSQNSDTEQYFREWFSKPANLHGVILPRVSGTHIKLWKLCYFRWVPEAQISLGGSITAFHKLSLLADEVDVLSRMLRQQRSGPLEACYGELGQSRMYFNASGPHHTDTSGTPEFLSSSFPFSPVGNLCRRSILGTPLSKFLSGAKIWLSTETLANED [MTMR10] | -0.147 | 0.00531
MFSRNHRSRVTVARGSALEMEFKRGRFRLSLFSDLPEDTELQRKLDHEIRMREGACKLLAACSQREQALEATKSLLVCNSRILSYMGELQRRKEAQVLGKTSRRPSDSGPPAERSPCRGRVCISDLRIPLMWKDTEYFKNKGDLHRWAVFLLLQLGEHIQDTEMILVDRTLTDISFQSNVLFAEAGPDFELRLELYGACVEEEGALTGGPKRLATKLSSSLGRSSGRRVRASLDSAGGSGSSPILLPTPVVGGPRYHLLAHTTLTLAAVQDGFRTHDLTLASHEENPAWLPLYGSVCCRLAAQPLCMTQPTASGTLRVQQAGEMQNWAQVHGVLKGTNLFCYRQPEDADTGEEPLLTIAVNKETRVRAGELDQALGRPFTLSISNQYGDDEVTHTLQTESREALQSWMEALWQLFFDMSQWKQCCDEIMKIETPAPRKPPQALAKQGSLYHEMAIEPLDDIAAVTDILTQREGARLETPPPWLAMFTDQPALPNPCSPASVAPAPDWTHPLPWGRPRTFSLDAVPPDHSPRARSVAPLPPQRSPRTRGLCSKGQPRTWLQSPV [RTKN] | 0.208 | -0.0634
MGAAGSSALARFVLLAQSRPGWLGVAALGLTAVALGAVAWRRAWPTRRRRLLQQVGTVAQLWIYPVKSCKGVPVSEAECTAMGLRSGNLRDRFWLVINQEGNMVTARQEPRLVLISLTCDGDTLTLSAAYTKDLLLPIKTPTTNAVHKCRVHGLEIEGRDCGEATAQWITSFLKSQPYRLVHFEPHMRPRRPHQIADLFRPKDQIAYSDTSPFLILSEASLADLNSRLEKKVKATNFRPNIVISGCDVYAEDSWDELLIGDVELKRVMACSRCILTTVDPDTGVMSRKEPLETLKSYRQCDPSERKLYGKSPLFGQYFVLENPGTIKVGDPVYLLGQ [MARC1] | 0.00278 | -0.0926
MGALARALLLPLLAQWLLRAAPELAPAPFTLPLRVAAATNRVVAPTPGPGTPAERHADGLALALEPALASPAGAANFLAMVDNLQGDSGRGYYLEMLIGTPPQKLQILVDTGSSNFAVAGTPHSYIDTYFDTERSSTYRSKGFDVTVKYTQGSWTGFVGEDLVTIPKGFNTSFLVNIATIFESENFFLPGIKWNGILGLAYATLAKPSSSLETFFDSLVTQANIPNVFSMQMCGAGLPVAGSGTNGGSLVLGGIEPSLYKGDIWYTPIKEEWYYQIEILKLEIGGQSLNLDCREYNADKAIVDSGTTLLRLPQKVFDAVVEAVARASLIPEFSDGFWTGSQLACWTNSETPWSYFPKISIYLRDENSSRSFRITILPQLYIQPMMGAGLNYECYRFGISPSTNALVIGATVMEGFYVIFDRAQKRVGFAASPCAEIAGAAVSEISGPFSTEDVASNCVPAQSLSEPILWIVSYALMSVCGAILLVLIVLLLLPFRCQRRPRDPEVVNDESSLVRHRWK [BACE2] | 0.0932 | 0.0177
MGAQDRPQCHFDIEINREPVGRIMFQLFSDICPKTCKNFLCLCSGEKGLGKTTGKKLCYKGSTFHRVVKNFMIQGGDFSEGNGKGGESIYGGYFKDENFILKHDRAFLLSMANRGKHTNGSQFFITTKPAPHLDGVHVVFGLVISGFEVIEQIENLKTDAASRPYADVRVIDCGVLATKSIKDVFEKKRKKPTHSEGSDSSSNSSSSSESSSESELEHERSRRRKHKRRPKVKRSKKRRKEASSSEEPRNKHAMNPKGHSERSDTNEKRSVDSSAKREKPVVRPEEIPPVPENRFLLRRDMPVVTAEPEPKIPDVAPIVSDQKPSVSKSGRKIKGRGTIRYHTPPRSRSCSESDDDDSSETPPHWKEEMQRLRAYRPPSGEKWSKGDKLSDPCSSRWDERSLSQRSRSWSYNGYYSDLSTARHSGHHKKRRKEKKVKHKKKGKKQKHCRRHKQTKKRRILIPSDIESSKSSTRRMKSSCDRERSSRSSSLSSHHSSKRDWSKSDKDVQSSLTHSSRDSYRSKSHSQSYSRGSSRSRTASKSSSHSRSRSKSRSSSKSGHRKRASKSPRKTASQLSENKPVKTEPLRATMAQNENVVVQPVVAENIPVIPLSDSPPPSRWKPGQKPWKPSYERIQEMKAKTTHLLPIQSTYSLANIKETGSSSSYHKREKNSESDQSTYSKYSDRSSESSPRSRSRSSRSRSYSRSYTRSRSLASSHSRSRSPSSRSHSRNKYSDHSQCSRSSSYTSISSDDGRRAKRRLRSSGKKNSVSHKKHSSSSEKTLHSKYVKGRDRSSCVRKYSESRSSLDYSSDSEQSSVQATQSAQEKEKQGQMERTHNKQEKNRGEEKSKSERECPHSKKRTLKENLSDHLRNGSKPKRKNYAGSKWDSESNSERDVTKNSKNDSHPSSDKEEGEATSDSESEVSEIHIKVKPTTKSSTNTSLPDDNGAWKSSKQRTSTSDSEGSCSNSENNRGKPQKHKHGSKENLKREHTKKVKEKLKGKKDKKHKAPKRKQAFHWQPPLEFGEEEEEEIDDKQVTQESKEKKVSENNETIKDNILKTEKSSEEDLSGKHDTVTVSSDLDQFTKDDSKLSISPTALNTEENVACLQNIQHVEESVPNGVEDVLQTDDNMEICTPDRSSPAKVEETSPLGNARLDTPDINIVLKQDMATEHPQAEVVKQESSMSESKVLGEVGKQDSSSASLASAGESTGKKEVAEKSQINLIDKKWKPLQGVGNLAAPNAATSSAVEVKVLTTVPEMKPQGLRIEIKSKNKVRPGSLFDEVRKTARLNRRPRNQESSSDEQTPSRDDDSQSRSPSRSRSKSETKSRHRTRSVSYSHSRSRSRSSTSSYRSRSYSRSRSRGWYSRGRTRSRSSSYRSYKSHRTSSRSRSRSSSYDPHSRSRSYTYDSYYSRSRSRSRSQRSDSYHRGRSYNRRSRSCRSYGSDSESDRSYSHHRSPSESSRYS [NKTR] | -1.34 | 0.283
MGATGDAEQPRGPSGAERGGLELGDAGAAGQLVLTNPWNIMIKHRQVQRRGRRSQMTTSFTDPAISMDLLRAVLQPSINEEIQTVFNKYMKFFQKAALNVRDNVGEEVDAEQLIQEACRSCLEQAKLLFSDGEKVIPRLTHELPGIKRGRQAEEECAHRGSPLPKKRKGRPPGHILSSDRAAAGMVWKPKSCEPIRREGPKWDPARLNESTTFVLGSRANKALGMGGTRGRIYIKHPHLFKYAADPQDKHWLAEQHHMRATGGKMAYLLIEEDIRDLAASDDYRGCLDLKLEELKSFVLPSWMVEKMRKYMETLRTENEHRAVEAPPQT [DNTTIP1] | 0.512 | -0.0131
MGCAPSIHISERLVAEDAPSPAAPPLSSGGPRLPQGQKTAALPRTRGAGLLESELRDGSGKKVAVADVQFGPMRFHQDQLQVLLVFTKEDNQCNGFCRACEKAGFKCTVTKEAQAVLACFLDKHHDIIIIDHRNPRQLDAEALCRSIRSSKLSENTVIVGVVRRVDREELSVMPFISAGFTRRYVENPNIMACYNELLQLEFGEVRSQLKLRACNSVFTALENSEDAIEITSEDRFIQYANPAFETTMGYQSGELIGKELGEVPINEKKADLLDTINSCIRIGKEWQGIYYAKKKNGDNIQQNVKIIPVIGQGGKIRHYVSIIRVCNGNNKAEKISECVQSDTHTDNQTGKHKDRRKGSLDVKAVASRATEVSSQRRHSSMARIHSMTIEAPITKVINIINAAQESSPMPVTEALDRVLEILRTTELYSPQFGAKDDDPHANDLVGGLMSDGLRRLSGNEYVLSTKNTQMVSSNIITPISLDDVPPRIARAMENEEYWDFDIFELEAATHNRPLIYLGLKMFARFGICEFLHCSESTLRSWLQIIEANYHSSNPYHNSTHSADVLHATAYFLSKERIKETLDPIDEVAALIAATIHDVDHPGRTNSFLCNAGSELAILYNDTAVLESHHAALAFQLTTGDDKCNIFKNMERNDYRTLRQGIIDMVLATEMTKHFEHVNKFVNSINKPLATLEENGETDKNQEVINTMLRTPENRTLIKRMLIKCADVSNPCRPLQYCIEWAARISEEYFSQTDEEKQQGLPVVMPVFDRNTCSIPKSQISFIDYFITDMFDAWDAFVDLPDLMQHLDNNFKYWKGLDEMKLRNLRPPPE [PDE8A] | -0.192 | -0.222
MGELCRRDSALTALDEETLWEMMESHRHRIVRCICPSRLTPYLRQAKVLCQLDEEEVLHSPRLTNSAMRAGHLLDLLKTRGKNGAIAFLESLKFHNPDVYTLVTGLQPDVDFSNFSGLMETSKLTECLAGAIGSLQEELNQEKGQKEVLLRRCQQLQEHLGLAETRAEGLHQLEADHSRMKREVSAHFHEVLRLKDEMLSLSLHYSNALQEKELAASRCRSLQEELYLLKQELQRANMVSSCELELQEQSLRTASDQESGDEELNRLKEENEKLRSLTFSLAEKDILEQSLDEARGSRQELVERIHSLRERAVAAERQREQYWEEKEQTLLQFQKSKMACQLYREKVNALQAQVCELQKERDQAYSARDSAQREISQSLVEKDSLRRQVFELTDQVCELRTQLRQLQAEPPGVLKQEARTREPCPREKQRLVRMHAICPRDDSDCSLVSSTESQLLSDLSATSSRELVDSFRSSSPAPPSQQSLYKRVAEDFGEEPWSFSSCLEIPEGDPGALPGAKAGDPHLDYELLDTADLPQLESSLQPVSPGRLDVSESGVLMRRRPARRILSQVTMLAFQGDALLEQISVIGGNLTGIFIHRVTPGSAADQMALRPGTQIVMVDYEASEPLFKAVLEDTTLEEAVGLLRRVDGFCCLSVKVNTDGYKRLLQDLEAKVATSGDSFYIRVNLAMEGRAKGELQVHCNEVLHVTDTMFQGCGCWHAHRVNSYTMKDTAAHGTIPNYSRAQQQLIALIQDMTQQCTVTRKPSSGGPQKLVRIVSMDKAKASPLRLSFDRGQLDPSRMEGSSTCFWAESCLTLVPYTLVRPHRPARPRPVLLVPRAVGKILSEKLCLLQGFKKCLAEYLSQEEYEAWSQRGDIIQEGEVSGGRCWVTRHAVESLMEKNTHALLDVQLDSVCTLHRMDIFPIVIHVSVNEKMAKKLKKGLQRLGTSEEQLLEAARQEEGDLDRAPCLYSSLAPDGWSDLDGLLSCVRQAIADEQKKVVWTEQSPR [CARD14] | -0.00296 | 0.0129
MGEPSREEYKIQSFDAETQQLLKTALKDPGAVDLEKVANVIVDHSLQDCVFSKEAGRMCYAIIQAESKQAGQSVFRRGLLNRLQQEYQAREQLRARSLQGWVCYVTFICNIFDYLRVNNMPMMALVNPVYDCLFRLAQPDSLSKEEEVDCLVLQLHRVGEQLEKMNGQRMDELFVLIRDGFLLPTGLSSLAQLLLLEIIEFRAAGWKTTPAAHKYYYSEVSD [MIF4GD] | 0.085 | 0.238
